The nature of this series: self-splicing fitness, log relative to wild type (ln ratio); higher = more splicing; Tetrahymena group I intron in knt gene, E. coli kanamycin selection, DiMSum; sequences stand for … in CUCUCU…GGAGGGAAAAGUUAUCAGGCAUGCACCUGGUAGCUAGUCUUUAAACCAAUAGAUUGCAUCGGUUUAAAAGGCAAGACCGUCAAAUUGCGGGAAAGGGGUCAACAGCCGUUCAGUACCAAGUCUCAGGGGAAACUUUGAGAUGGCCUUGCAAAGGGUAUGGUAAUAAGCUGACGGACAUGGUCCUAACCACGCAGCCAAGUCCUAAGUCAACAGAUCUUCUGUUGAUAUGGAUGCAGUUCACAGACUAAAUGUCGGUCGGGGAAGAUGUAUUCUUCUCAUAAGAUAUAGUCGGACCUCUCCUUAAUGGGAGCUAGCGGAUGAAGUGAUGCAACACUGGAGCCGCUGGGAACUAAUUUGUAUGCGAAAGUAUAUUGAUUAGUUUUGGAGUACUCGUGGUCG
In outline: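 Pooled colonies went to amplicon sequencing on an Illumina HiSeq 2500 after six replicate transformations. The plates were LB agar with 100 μg/mL carbenicillin, 50 μM IPTG and 0.2% rhamnose, with or without 25 μg/mL kanamycin, incubated overnight at 37°C or 30°C. The E. coli BL21(DE3) library had all eight P1ex-region intron nucleotides randomised, the intron placed in the knt kanamycin-resistance gene on pET-22b(+). DiMSum fitness is the error-weighted combination of replicate fold changes, kanamycin against none, normalised to wild type.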

± gives the uncertainty stated by the source.

On to UACCAGCAAUAUUACGAUGG, for which the “self-splicing fitness (ln)” value was -3.01 ± 0.11 (30 °C) and -1.25 ± 0.091 (37 °C).

For AGGUAGCAAUAUUACGGACC, the “self-splicing fitness (ln)” value runs as follows: (30 °C) -0.613 ± 0.019; (37 °C) -0.424 ± 0.037.

AGGUAGCAAUAUUACGGCGA: the “self-splicing fitness (ln)” value is -0.281 ± 0.015 (30 °C) and -0.0476 ± 0.033 (37 °C).

For the sequence AGAUAGCAAUAUUACGUUAG, the “self-splicing fitness (ln)” value was -4.56 ± 0.31 (30 °C) and -0.345 ± 0.15 (37 °C).

For the sequence GUAAAGCAAUAUUACGAUGU, the “self-splicing fitness (ln)” value (30 °C) was -0.534 ± 0.081 and the “self-splicing fitness (ln)” value (37 °C) is -0.0801 ± 0.1.

For the sequence CAGCAGCAAUAUUACGCGGU, the “self-splicing fitness (ln)” value by setting is: (30 °C) -1.52 ± 0.1; (37 °C) -1.74 ± 0.18.

Consider UCCUAGCAAUAUUACGCUUU, for which the “self-splicing fitness (ln)” value (37 °C) was -1.85 ± 0.29.

Consider AAUUAGCAAUAUUACGUAGA, for which the “self-splicing fitness (ln)” value is, setting by setting: (30 °C) -1.75 ± 0.14; (37 °C) -2.03 ± 0.17.

Regarding GAAUAGCAAUAUUACGUCGC, the “self-splicing fitness (ln)” value (30 °C) was -0.78 ± 0.12 and the “self-splicing fitness (ln)” value (37 °C) is -0.38 ± 0.17.

Consider CGAGAGCAAUAUUACGUGUG, for which the “self-splicing fitness (ln)” value is -2.97 ± 0.12 (30 °C) and -2.5 ± 0.15 (37 °C).

As for CCCCAGCAAUAUUACGUAGU, the “self-splicing fitness (ln)” value is, setting by setting: (30 °C) -3.09 ± 0.078; (37 °C) -3.07 ± 0.16.

For CCUAAGCAAUAUUACGUGGC, the “self-splicing fitness (ln)” value is -3.59 ± 0.18 (30 °C) and -2.85 ± 0.19 (37 °C).

In the case of UGUAAGCAAUAUUACGUAUC, the “self-splicing fitness (ln)” value is -3.17 ± 0.23 (30 °C) and -2.13 ± 0.24 (37 °C).

As to AAUGAGCAAUAUUACGCGUA, the “self-splicing fitness (ln)” value (30 °C) is -2.4 ± 0.27 and the “self-splicing fitness (ln)” value (37 °C) is -1.62 ± 0.25.

On to UUAUAGCAAUAUUACGAUAG, for which the “self-splicing fitness (ln)” value (30 °C) was -0.194 ± 0.16 and the “self-splicing fitness (ln)” value (37 °C) is -0.527 ± 0.16.

As for UGAUAGCAAUAUUACGGUAC, the “self-splicing fitness (ln)” value (37 °C) is -2.12 ± 0.42.

As for GUUCAGCAAUAUUACGUAUA, the “self-splicing fitness (ln)” value was -0.905 ± 0.15 (30 °C) and -1.1 ± 0.17 (37 °C).

In the case of GUUCAGCAAUAUUACGUAGG, the “self-splicing fitness (ln)” value by setting is: (30 °C) -0.609 ± 0.082; (37 °C) 0.163 ± 0.1.

As for GCAGAGCAAUAUUACGGGGA, the “self-splicing fitness (ln)” value was -3.65 ± 0.37 (30 °C) and -2.84 ± 0.36 (37 °C).

As for CACGAGCAAUAUUACGUACG, the “self-splicing fitness (ln)” value runs as follows: (30 °C) -2.38 ± 0.14; (37 °C) -0.807 ± 0.15.

Consider GGCCAGCAAUAUUACGCUAC, for which the “self-splicing fitness (ln)” value is -4.15 ± 0.3 (30 °C) and -2.57 ± 0.23 (37 °C).

For GGCAAGCAAUAUUACGGACA, the “self-splicing fitness (ln)” value is -0.577 ± 0.085 (30 °C) and -0.00922 ± 0.11 (37 °C).

Regarding UGAGAGCAAUAUUACGUCCU, the “self-splicing fitness (ln)” value was -3.05 ± 0.24 (30 °C) and -2.57 ± 0.49 (37 °C).

Turning to CCUGAGCAAUAUUACGAACG, the “self-splicing fitness (ln)” value is, setting by setting: (30 °C) -2.81 ± 0.26; (37 °C) -1.48 ± 0.27.

Turning to AUGAAGCAAUAUUACGCAGU, the “self-splicing fitness (ln)” value is, setting by setting: (30 °C) -1.36 ± 0.11; (37 °C) -0.415 ± 0.11.

With AUGGAGCAAUAUUACGGCGA, for the setting “37 °C”, the “self-splicing fitness (ln)” value is -1.68 ± 0.29.

For AGACAGCAAUAUUACGUUCG, the “self-splicing fitness (ln)” value reads like this: (30 °C) -0.687 ± 0.05; (37 °C) 0.0905 ± 0.072.

For the sequence AAGGAGCAAUAUUACGAGGU, the “self-splicing fitness (ln)” value (30 °C) was -3.6 ± 0.23 and the “self-splicing fitness (ln)” value (37 °C) was -3.6 ± 0.47.

Turning to CGACAGCAAUAUUACGCAAG, the “self-splicing fitness (ln)” value was -1.28 ± 0.081 (30 °C) and -0.83 ± 0.097 (37 °C).

Turning to UGACAGCAAUAUUACGGGUG, the “self-splicing fitness (ln)” value was -0.383 ± 0.052 (30 °C) and -0.732 ± 0.074 (37 °C).

For the sequence GGCAAGCAAUAUUACGACCG, the “self-splicing fitness (ln)” value was -0.371 ± 0.11 (30 °C) and -0.482 ± 0.15 (37 °C).

On to CUUUAGCAAUAUUACGAUUU, for which the “self-splicing fitness (ln)” value is, setting by setting: (30 °C) -2.66 ± 0.18; (37 °C) -2.72 ± 0.3.

On to CCCGAGCAAUAUUACGCAGG, for which the “self-splicing fitness (ln)” value was -1.97 ± 0.2 (30 °C) and -1.36 ± 0.22 (37 °C).

In the case of GAUAAGCAAUAUUACGAAAA, the “self-splicing fitness (ln)” value was -2.98 ± 0.17 (30 °C) and -2.47 ± 0.2 (37 °C).

As to UCAGAGCAAUAUUACGUAUG, the “self-splicing fitness (ln)” value reads like this: (30 °C) -2.12 ± 0.23; (37 °C) -2.37 ± 0.31.

In the case of UUAUAGCAAUAUUACGGAAG, the “self-splicing fitness (ln)” value (30 °C) is -2.21 ± 0.26 and the “self-splicing fitness (ln)” value (37 °C) was -1.77 ± 0.26.

With CUAUAGCAAUAUUACGUGCU, the “self-splicing fitness (ln)” value was -3.61 ± 0.33 (30 °C) and -2.56 ± 0.32 (37 °C).

With UAUUAGCAAUAUUACGUCUA, the “self-splicing fitness (ln)” value runs as follows: (30 °C) -0.265 ± 0.091; (37 °C) 0.324 ± 0.12.
